Results published in CN112830969A (JIANGSU NOVOMAB BIOPHARMACEUTICALS INC, dated 2021).

Assays:
人Claudin18.2 (过表达细胞) [1] = target: T1, 人Claudin18.2 (过表达细胞) (human, UniProt P56856-2 1-261); assay: cell-based or functional assay
[2] = target: T2, 人Claudin18.2-His重组蛋白(Kactus,Cat.CLD-HE1821) (human, UniProt P56856-2 1-261, limits assumed); assay: ELISA, human Claudin18.2-His coated
T2 construct: Bought protein; also called Claudin18.2重组蛋白; not shown: His tag

人Claudin18.1 (过表达细胞) = target: T3, 人Claudin18.1 (过表达细胞) (human, UniProt P56856 1-261); assay: cell ELISA on 293 cells transfected with human Claudin18.1
T3 construct: whole, on cells; also called CLDN18.1; Caludin18.1

人Claudin18.2 (过表达细胞) [3] = target: T1, 人Claudin18.2 (过表达细胞); assay: cell ELISA on 293 cells transfected with human Claudin18.2

ADCC活性 EC50 (靶细胞的裂解百分比, LDH; NUGC4-Claudin18.2靶细胞, NK92效应细胞) (人Claudin18.2 (过表达细胞) [1]) [nM] | EC50 [2] [µg/mL] | binding result (人Claudin18.1 (过表达细胞)) | EC50 (人Claudin18.2 (过表达细胞) [3]) [µg/mL] | Binder
0.0126 | 0.49 | no binding | 0.028 | 人源化抗体HA1LA1 (antibody, human IgG1, kappa, V domains shown, also called Claudin18.2单抗对照) VH: QVQLVESGGGVVQPGRSLRLSCAASGFTFSTYGVHWVRQAPGKGLEWVAVIWNGGNTDYNAAFISRFTISRDNSKNTLYLQMNSLRAEDTAVYYCARNRRGGGFGMDYWGQGTLVTVSS VL: DIVMTQSPDSLAVSLGERATINCKSSQSLLNGGIQKNYLTWYQQKPGQPPKLLIYWASTRESGVPDRFSGSGSGTDFTLTISSLQAEDVAVYYCQNAYTYPFTFGQGTKLEIKR
0.0575 |  | no binding | 0.119 | 对照抗体(来自专利CN20148000912) (antibody, V domains shown) VH: QIQLVQSGPELKKPGETVKISCKASGYTFTNYGMNWVKQAPGKGLKWMGWINTNTGEPTYAEEFKGRFAFSLETSASTAYLQINNLKNEDTATYFCARLGFGNAMDYWGQGTSVTVSS VL: DIVMTQSPSSLTVTAGEKVTMSCKSSQSLLNSGNQKNYLTWYQQKPGQPPKLLIYWASTRESGVPDRFTGSGSGTDFTLTISSVQAEDLAVYYCQNDYSYPLTFGAGTKLELK
